What all share (experiment): pulldown
Data set [1] concerns the target T1, ANKHD1 (Homo sapiens) (UniProt Q8IWZ3).
T1 sequence: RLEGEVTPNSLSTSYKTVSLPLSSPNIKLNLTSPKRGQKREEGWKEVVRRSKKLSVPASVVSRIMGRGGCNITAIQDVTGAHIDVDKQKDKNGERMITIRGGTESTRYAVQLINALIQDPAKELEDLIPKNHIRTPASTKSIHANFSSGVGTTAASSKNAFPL
The settings on record: 20 nM protein, 1.5 uM RNA pool; 20 mM HEPES pH 7.8, 70 mM KCl, 10 mM NaCl, 10% glycerol, 2 mM DTT, 0.1 ug/uL BSA; 30 min, 4 C (protocol of this paper; not …); cited from earlier work.

The target in data set [2] is T2, syncrip (Xenopus tropicalis) (UniProt A0A8J0QJ86).
T2 sequence: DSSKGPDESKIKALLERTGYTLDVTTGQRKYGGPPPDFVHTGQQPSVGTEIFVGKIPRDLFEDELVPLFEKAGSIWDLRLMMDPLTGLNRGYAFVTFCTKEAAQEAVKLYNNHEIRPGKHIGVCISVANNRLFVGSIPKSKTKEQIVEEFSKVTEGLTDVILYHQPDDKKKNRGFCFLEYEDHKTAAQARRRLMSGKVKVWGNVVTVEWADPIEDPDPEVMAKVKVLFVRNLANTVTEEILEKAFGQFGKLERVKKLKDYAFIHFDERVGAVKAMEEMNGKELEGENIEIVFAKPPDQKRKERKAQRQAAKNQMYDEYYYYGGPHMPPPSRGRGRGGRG
The settings on record: 20 nM protein, 1.5 uM RNA pool; 20 mM HEPES pH 7.8, 70 mM KCl, 10 mM NaCl, 10% glycerol, 2 mM DTT, 0.1 ug/uL BSA; 30 min, 4 C (protocol of this paper; not …); cited from earlier work.

The target of data set [3] is T3, A1CF (Gallus gallus) (UniProt A0A8V0ZPX5).
T3 sequence: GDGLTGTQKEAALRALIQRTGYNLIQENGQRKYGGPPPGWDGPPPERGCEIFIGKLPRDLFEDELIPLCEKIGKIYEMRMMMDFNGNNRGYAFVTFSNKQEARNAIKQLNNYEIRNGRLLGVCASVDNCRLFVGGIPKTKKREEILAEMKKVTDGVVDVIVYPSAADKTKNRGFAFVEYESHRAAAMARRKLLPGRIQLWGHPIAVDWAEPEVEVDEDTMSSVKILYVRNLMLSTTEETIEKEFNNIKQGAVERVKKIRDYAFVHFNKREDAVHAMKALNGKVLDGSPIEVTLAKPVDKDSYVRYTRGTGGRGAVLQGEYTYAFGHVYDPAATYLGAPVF
The settings on record: 20 nM protein, 1.5 uM RNA pool; 20 mM HEPES pH 7.8, 70 mM KCl, 10 mM NaCl, 10% glycerol, 2 mM DTT, 0.1 ug/uL BSA; 30 min, 4 C (protocol of this paper; not …); cited from earlier work.

Data set [4] concerns the target T4, rbm24a (Tetraodon nigroviridis) (UniProt H3CUV7).
T4 sequence: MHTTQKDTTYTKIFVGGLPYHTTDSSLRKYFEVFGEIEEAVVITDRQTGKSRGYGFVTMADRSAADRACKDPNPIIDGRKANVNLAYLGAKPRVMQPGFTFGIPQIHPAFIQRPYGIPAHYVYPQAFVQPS
The settings on record: 20 nM protein, 1.5 uM RNA pool; 20 mM HEPES pH 7.8, 70 mM KCl, 10 mM NaCl, 10% glycerol, 2 mM DTT, 0.1 ug/uL BSA; 30 min, 4 C (protocol of this paper; not …); cited from earlier work.

Data set [5] addresses T5, rbm47 (Xenopus tropicalis) (UniProt A0A8J0QCA8).
T5 sequence: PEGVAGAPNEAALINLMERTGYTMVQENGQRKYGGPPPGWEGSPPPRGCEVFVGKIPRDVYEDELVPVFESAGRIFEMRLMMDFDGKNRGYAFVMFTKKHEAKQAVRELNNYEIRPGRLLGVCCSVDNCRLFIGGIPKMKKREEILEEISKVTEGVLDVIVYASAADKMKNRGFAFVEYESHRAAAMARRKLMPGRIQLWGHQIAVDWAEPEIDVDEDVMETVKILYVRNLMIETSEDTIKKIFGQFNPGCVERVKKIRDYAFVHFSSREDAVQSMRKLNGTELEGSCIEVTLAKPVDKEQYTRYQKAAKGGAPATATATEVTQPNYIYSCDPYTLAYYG
The following applies: 20 nM protein, 1.5 uM RNA pool; 20 mM HEPES pH 7.8, 70 mM KCl, 10 mM NaCl, 10% glycerol, 2 mM DTT, 0.1 ug/uL BSA; 30 min, 4 C (protocol of this paper; not …); cited from earlier work.

Data set [6] deals with T6, AT1G76460 (Arabidopsis thaliana) (UniProt F4I2E4).
T6 sequence: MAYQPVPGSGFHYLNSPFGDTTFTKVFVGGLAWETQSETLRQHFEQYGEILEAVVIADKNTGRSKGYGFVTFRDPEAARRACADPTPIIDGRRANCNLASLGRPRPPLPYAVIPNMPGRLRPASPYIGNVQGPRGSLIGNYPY
The following applies: 20 nM protein, 1.5 uM RNA pool; 20 mM HEPES pH 7.8, 70 mM KCl, 10 mM NaCl, 10% glycerol, 2 mM DTT, 0.1 ug/uL BSA; 30 min, 4 C (protocol of this paper; not …); cited from earlier work.

The target in data set [7] is T7, csx1 (Schizosaccharomyces pombe) (UniProt O13759).
T7 sequence: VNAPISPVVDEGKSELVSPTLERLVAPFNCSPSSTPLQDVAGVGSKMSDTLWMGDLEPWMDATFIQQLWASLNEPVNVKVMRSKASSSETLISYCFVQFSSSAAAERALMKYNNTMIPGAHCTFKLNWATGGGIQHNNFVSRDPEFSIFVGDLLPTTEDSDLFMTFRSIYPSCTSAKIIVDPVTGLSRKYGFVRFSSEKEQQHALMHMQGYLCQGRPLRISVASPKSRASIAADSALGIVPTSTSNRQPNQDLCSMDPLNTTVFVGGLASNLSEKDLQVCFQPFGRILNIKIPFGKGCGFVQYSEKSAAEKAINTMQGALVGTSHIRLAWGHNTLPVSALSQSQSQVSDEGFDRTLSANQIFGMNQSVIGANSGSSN
The following applies: 20 nM protein, 1.5 uM RNA pool; 20 mM HEPES pH 7.8, 70 mM KCl, 10 mM NaCl, 10% glycerol, 2 mM DTT, 0.1 ug/uL BSA; 30 min, 4 C.

The target of data set [8] is T8, RBM47 (Gallus gallus) (UniProt A0A8V0YMK0).
T8 sequence: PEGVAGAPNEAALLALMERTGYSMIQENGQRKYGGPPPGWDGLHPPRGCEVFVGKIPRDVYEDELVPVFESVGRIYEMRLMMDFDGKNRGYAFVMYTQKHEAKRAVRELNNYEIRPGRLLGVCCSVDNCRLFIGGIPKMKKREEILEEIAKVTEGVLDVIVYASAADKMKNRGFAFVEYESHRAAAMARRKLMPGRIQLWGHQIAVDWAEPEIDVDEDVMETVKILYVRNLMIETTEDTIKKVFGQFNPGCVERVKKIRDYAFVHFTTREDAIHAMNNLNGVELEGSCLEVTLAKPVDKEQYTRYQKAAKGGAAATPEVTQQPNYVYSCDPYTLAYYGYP
The settings on record: 20 nM protein, 1.5 uM RNA pool; 20 mM HEPES pH 7.8, 70 mM KCl, 10 mM NaCl, 10% glycerol, 2 mM DTT, 0.1 ug/uL BSA; 30 min, 4 C (protocol of this paper; not …); cited from earlier work.

Consider AGACGU [RNAcompete motif RNCMPT00002], for which, in data set [1], the binding signal (z-score (mean of top ten 7-mers)) is 22.8.
For AAAUU [RNAcompete motif RNCMPT00281], in data set [2], the binding signal (z-score (mean of top ten 7-mers)) was 7.01.
For the sequence UAAUUG [RNAcompete motif RNCMPT00291], the binding signal (z-score (mean of top ten 7-mers)) in data set [3] is 12.
UGUGUG [RNAcompete motif RNCMPT00285]: the binding signal (z-score (mean of top ten 7-mers)) in data set [4] was 10.2.
As for GAUGAUU [RNAcompete motif RNCMPT00280], in data set [5], the binding signal (z-score (mean of top ten 7-mers)) was 7.8.
With AGUGUGA [RNAcompete motif RNCMPT00284], the binding signal (z-score (mean of top ten 7-mers)) in data set [6] was 8.11.
Turning to UGUUUU [RNAcompete motif RNCMPT00325], in data set [7], the binding signal (z-score (mean of top ten 7-mers)) was 9.34.
For GAUGAU [RNAcompete motif RNCMPT00279], in data set [8], the binding signal (z-score (mean of top ten 7-mers)) is 8.4.
